According to publication PMC8613972:

Columns and labels:
Naja siamensis venom = assay: biolayer interferometry (wavelength shift, AUC of association curve); settings: 120-s association phase; n=3; parent: est. 23; read off a plot
Naja mossambica venom = assay: as above; settings: 120-s association phase; n=3; parent: est. 29; read off a plot

Substance | response (Naja siamensis venom) [AUC] | response (Naja mossambica venom) [AUC]
Homininae α-1 nAChR orthosteric site (loop C) mimotope, native S187W | 16 | 20
Homininae α-1 nAChR orthosteric site (loop C) mimotope, native S187W; S191A | 28 | 38
Homininae α-1 nAChR orthosteric site (loop C) mimotope, native S187W; T189F | 50 | 88
Homininae α-1 nAChR orthosteric site (loop C) mimotope, native S187W; T189F; S191A | 53 | 76
Homininae α-1 nAChR orthosteric site (loop C) mimotope, native S191A | 28 | 35
Homininae α-1 nAChR orthosteric site (loop C) mimotope, native T189F | 32 | 46
Homininae α-1 nAChR orthosteric site (loop C) mimotope, native T189F; S191A | 31 | 47
